{
  "source": "IntAct's records for PubMed 19490895",
  "parents": {"B1": {"name": "Regulatory protein NPR1 (Arabidopsis thaliana (Mouse-ear cress)), P93002 (parent)", "chain": "MDTTIDGFADSYEISSTSFVATDNTDSSIVYLAAEQVLTGPDVSALQLLSNSFESVFDSPDDFYSDAKLVLSDGREVSFHRCVLSARSSFFKSALAAAKKEKDSNNTAAVKLELKEIAKDYEVGFDSVVTVLAYVYSSRVRPPPKGVSECADENCCHVACRPAVDFMLEVLYLAFIFKIPELITLYQRHLLDVVDKVVIEDTLVILKLANICGKACMKLLDRCKEIIVKSNVDMVSLEKSLPEELVKEIIDRRKELGLEVPKVKKHVSNVHKALDSDDIELVKLLLKEDHTNLDDACALHFAVAYCNVKTATDLLKLDLADVNHRNPRGYTVLHVAAMRKEPQLILSLLEKGASASEATLEGRTALMIAKQATMAVECNNIPEQCKHSLKGRLCVEILEQEDKREQIPRDVPPSFAVAADELKMTLLDLENRVALAQRLFPTEAQAAMEIAEMKGTCEFIVTSLEPDRLTGTKRTSPGVKIAPFRILEEHQSRLKALSKTVELGKRFFPRCSAVLDQIMNCEDLTQLACGEDDTAEKRLQKKQRYMEIQETLKKAFSEDNLELGNSSLTDSTSSTSKSTGGKRSNRKLSHRRR", "partner": "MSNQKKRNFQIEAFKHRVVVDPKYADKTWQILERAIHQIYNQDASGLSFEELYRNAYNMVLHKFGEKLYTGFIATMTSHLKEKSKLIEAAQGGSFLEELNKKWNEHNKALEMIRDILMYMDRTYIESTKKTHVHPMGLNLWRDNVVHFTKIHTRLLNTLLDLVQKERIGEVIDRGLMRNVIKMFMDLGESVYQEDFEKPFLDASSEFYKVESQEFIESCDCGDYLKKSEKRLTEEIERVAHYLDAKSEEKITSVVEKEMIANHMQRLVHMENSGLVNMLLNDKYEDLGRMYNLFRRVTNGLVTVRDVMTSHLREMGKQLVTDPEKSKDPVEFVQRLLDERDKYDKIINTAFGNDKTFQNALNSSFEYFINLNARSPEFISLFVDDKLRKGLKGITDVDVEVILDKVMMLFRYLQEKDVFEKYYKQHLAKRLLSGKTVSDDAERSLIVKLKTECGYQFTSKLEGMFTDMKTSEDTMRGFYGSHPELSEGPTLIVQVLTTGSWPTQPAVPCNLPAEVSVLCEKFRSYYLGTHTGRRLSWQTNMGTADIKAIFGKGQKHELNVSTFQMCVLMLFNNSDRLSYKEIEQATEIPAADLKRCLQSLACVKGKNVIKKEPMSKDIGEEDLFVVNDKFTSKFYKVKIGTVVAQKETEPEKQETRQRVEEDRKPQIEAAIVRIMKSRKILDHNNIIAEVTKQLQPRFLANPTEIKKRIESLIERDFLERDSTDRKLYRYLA"}},
  "data": [
    {"variants_of": "B1", "settings": "with cul3a_arath CUL3A", "values": [
      {"variant": "S11A;S15A", "effect of a mutation on the interaction": "decreasing interaction"}
    ]}
  ]
}
